Results: PMC6593408

Columns and labels:
Assay in all cases: EMSA
Details in all cases: EMSA: pKa-matched buffers (ethanolamine-CAPSO pH 9.6, Tris-acetate pH 8.0, bis-Tris-ACES pH 6.7), 155 mM NaCl, 5 nM DNA, 2.5-20 or 40 uM protein, 30 min room …
[1] = target: T1, 0100 (Csa1A) (Staphylococcus aureus USA300 LAC) (UniProt Q2FKG1)
T1 sequence: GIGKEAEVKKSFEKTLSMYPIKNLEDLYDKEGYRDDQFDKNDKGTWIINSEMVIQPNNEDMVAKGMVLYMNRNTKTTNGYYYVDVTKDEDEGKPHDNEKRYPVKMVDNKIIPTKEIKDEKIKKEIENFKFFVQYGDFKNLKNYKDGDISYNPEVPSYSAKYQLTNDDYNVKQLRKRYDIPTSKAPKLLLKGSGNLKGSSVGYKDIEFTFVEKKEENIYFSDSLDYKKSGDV

[2] = target: T2, DsbA (Staphylococcus aureus USA300 LAC) (UniProt A0A0H2XFS3)
T2 sequence: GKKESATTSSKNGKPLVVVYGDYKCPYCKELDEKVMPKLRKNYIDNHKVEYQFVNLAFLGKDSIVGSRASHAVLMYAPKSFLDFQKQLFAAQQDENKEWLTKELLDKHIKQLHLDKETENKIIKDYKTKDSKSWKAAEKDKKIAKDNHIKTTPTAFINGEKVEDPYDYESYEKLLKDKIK

[3] = target: T3, CopL (0079) (Staphylococcus aureus USA300 LAC) (UniProt A0A0H2XFS1)
T3 sequence: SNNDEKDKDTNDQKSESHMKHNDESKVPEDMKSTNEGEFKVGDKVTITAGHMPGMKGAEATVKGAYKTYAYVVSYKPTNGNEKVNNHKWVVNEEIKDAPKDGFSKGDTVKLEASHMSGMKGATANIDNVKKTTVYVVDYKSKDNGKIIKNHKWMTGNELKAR

Measured: binding

GTTCATTATGAAGTCCCTCCAAAAATCATTTGATAATATAGTTTACAGCTATAATTGTAAACGCTATCATAAAATGTAACAATATCTTTTTGAAAATTGTAGTCATATTTATGTATAATTAATGAAAATGTTTTTCAAAATCAATAGAAATGGAGTGAGTAAGGTGTATTACATCGCAATCGATATTGGAGGCACTCAAATTAAATCGGCAGTTATTGATAAGCAATTGAATATGTTTGACTATCAACAAATATCAACG (double strand) [259-bp nanA promoter probe]
binds: all assays above
